Measured values reported in US20250218531A1 (ABSCI, published 2025).

Key:
[1] = molecular target: T1, SARS-COV2 Spike RBD, Beta (SARS-CoV-2, UniProt P0DTC2 319-541); assay: SPR; 'N/A indicates a lack of binding'
T1 construct: domain: RBD

[2] = molecular target: T2, SARS-COV2 Spike RBD, Delta (SARS-CoV-2, UniProt P0DTC2 319-541); assay: SPR; 'N/A indicates a lack of binding'
T2 construct: domain: RBD

B1: AI-Designed Binder (de novo casirivimab HCDR3 variant) (Fab, V domains shown)
VH: QVQLVESGGGLVKPGGSLRLSCAASGFTFSDYYMSWIRQAPGKGLEWVSYITYSGSTIYYADSVKGRFTISRDNAKSSLYLQMNSLRAEDTAVYYCARDWGQTWDSYFDYWGQGTLVTVSS
VL: DIQMTQSPSSLSASVGDRVTITCQASQDITNYLNWYQQKPGKAPKLLIYAASNLETGVPSRFSGSGSGTDFTFTISGLQPEDIATYYCQQYDNLPLTFGGGTKVEIKR
notes: Fab format
- binding result [1]: no binding
- binding result [2]: no binding
